According to IntAct's records for PubMed 23454188:

B1: GTPase IMAP family member 7 (Homo sapiens), Q8NHV1 (parent)
chain: MAESEDRSLRIVLVGKTGSGKSATANTILGEEIFDSRIAAQAVTKNCQKASREWQGRDLLVVDTPGLFDTKESLDTTCKEISRCIISSCPGPHAIVLVLLLGRYTEEEQKTVALIKAVFGKSAMKHMVILFTRKEELEGQSFHDFIADADVGLKSIVKECGNRCCAFSNSKKTSKAEKESQVQELVELIEKMVQCNEGAYFSDDIYKDTEERLKQREEVLRKIYTDQLNEEIKLVEEDKHKSEEEKEKEIKLLKLKYDEKIKNIREEAERNIFKDVFNRIWKMLSEIWHRFLSKCKFYSS

Variants of: B1
Settings: with gima2_human GIMAP2, Q9UG22
Sequence of gima2_human GIMAP2, Q9UG22 (Q9UG22 whole entry): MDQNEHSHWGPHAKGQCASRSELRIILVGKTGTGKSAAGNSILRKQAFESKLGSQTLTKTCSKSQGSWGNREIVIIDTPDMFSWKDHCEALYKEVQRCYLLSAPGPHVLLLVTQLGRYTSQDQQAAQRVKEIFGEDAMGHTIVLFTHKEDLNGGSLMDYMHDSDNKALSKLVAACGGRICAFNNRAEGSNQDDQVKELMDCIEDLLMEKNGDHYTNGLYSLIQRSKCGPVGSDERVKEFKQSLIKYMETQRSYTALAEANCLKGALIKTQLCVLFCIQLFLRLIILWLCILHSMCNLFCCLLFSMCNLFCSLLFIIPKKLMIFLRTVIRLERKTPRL

Row | Variant | effect of a mutation on the interaction
1 | R103D | disrupting interaction strength
2 | E136W | decreasing interaction strength
